Reference: patent US12295987B2, “Method of using a GIP/GLP1 co-agonist for diabetes” (Eli Lilly and Company, priority 2018, dated 2025)

Molecular target: T1, human gastric inhibitory peptide receptor (hGIPR) (Homo sapiens, UniProt P48546)
T1 construct: expressed in transfected cells; host or cells: HEK293
T1 sequence (P48546 22-466): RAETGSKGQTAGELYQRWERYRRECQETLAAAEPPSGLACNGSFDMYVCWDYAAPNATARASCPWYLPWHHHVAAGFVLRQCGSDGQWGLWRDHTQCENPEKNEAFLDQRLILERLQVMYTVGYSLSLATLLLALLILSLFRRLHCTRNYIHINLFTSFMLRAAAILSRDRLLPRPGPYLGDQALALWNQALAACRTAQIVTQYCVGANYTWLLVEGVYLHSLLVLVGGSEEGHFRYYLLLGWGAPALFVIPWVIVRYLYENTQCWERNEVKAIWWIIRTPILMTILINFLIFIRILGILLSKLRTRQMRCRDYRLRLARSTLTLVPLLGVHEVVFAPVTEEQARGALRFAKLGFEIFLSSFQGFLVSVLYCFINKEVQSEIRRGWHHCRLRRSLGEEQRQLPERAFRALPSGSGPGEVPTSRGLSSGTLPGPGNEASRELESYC
Experiment: cAMP pharmacological functional assay in presence of 0.1% casein, hGIPR
Assay type: cell-based
Settings: ratio of hGIPR to hGLP1R cAMP EC50 ratios

**Q.** “Y-Aib-EGT-αMeF-TSDYSI-αMeL-LDKK((2-[2-(2-Amino-ethoxy)-ethoxy]-acetyl)2-(γGlu)2-CO—(CH2)18—CO2H)AQ-Aib-AFIEYLIEGGPSSGAPPPS-NH2 (YXEGTXTSDYSIXLDKKAQXAFIEYLIEGGPSSGAPPPS; Aib, αMeF, αMeL; acylated lysine C20 diacid; amide; (2)..(2) Xaa at position 2 is Aib; (6)..(6) Xaa at position 6 is alpha-methyl-Phe; (13)..(13) Xaa at position 13 is alpha-methyl-Leu; MOD_RES (17)..(17) Lys at position 17 is chemically modified by conjugation of the epsilon-amino group of the Lys side chain with (2-[2-(2-amino-ethoxy)-ethoxy]-acetyl)2-(gamma-Glu)2-CO-(CH2)18- CO2H; (20)..(20) Xaa at position 20 is Aib; MOD_RES (39)..(39) Ser at p) [Peptide 125]” was tested. Which “[hGIPR/hGLP1R] EC50 Ratio” value did it give?
**A.** Its value is 2.89.

**Q.** For “Y-Aib-EGT-αMeF-TSDYSI-αMeL-LDKK((2-[2-(2-Amino-ethoxy)-ethoxy]-acetyl)2-(γGlu)-CO—(CH2)18—CO2H)AQ-Aib-AFIEYLIEAGPSSGAPPPS-NH2 (YXEGTXTSDYSIXLDKKAQXAFIEYLIEAGPSSGAPPPS; Aib, αMeF, αMeL; acylated lysine C20 diacid; amide; (2)..(2) Xaa at position 2 is Aib; (6)..(6) Xaa at position 6 is alpha-methyl-Phe; (13)..(13) Xaa at position 13 is alpha-methyl-Leu; MOD_RES (17)..(17) Lys at position 17 is chemically modified by conjugation of the epsilon-amino group of the Lys side chain with (2-[2-(2-amino-ethoxy)-ethoxy]-acetyl)2-(gamma-Glu)-CO-(CH2)18- CO2H; (20)..(20) Xaa at position 20 is Aib; MOD_RES (39)..(39) Ser at po) [Peptide 126]”, which “[hGIPR/hGLP1R] EC50 Ratio” value is on record?
**A.** Its value is 2.91.

**Q.** For “Y-Aib-EGT-αMeF-TSDYSI-αMeL-LDKK((2-[2-(2-Amino-ethoxy)-ethoxy]-acetyl)2-(γGlu)-CO—(CH2)18—CO2H)AQ-Aib-AFIEYLIEGGPSSGAPPPS-NH2 (YXEGTXTSDYSIXLDKKAQXAFIEYLIEGGPSSGAPPPS; Aib, αMeF, αMeL, lipidated Lys, C-terminal amide; (2)..(2) Xaa at position 2 is Aib; (6)..(6) Xaa at position 6 is alpha-methyl-Phe; (13)..(13) Xaa at position 13 is alpha-methyl-Leu; MOD_RES (17)..(17) Lys at position 17 is chemically modified by conjugation of the epsilon-amino group of the Lys side chain with (2-[2-(2-amino-ethoxy)-ethoxy]-acetyl)2-(gamma-Glu)-CO-(CH2)18- CO2H; (20)..(20) Xaa at position 20 is Aib; MOD_RES (39)..(39) Ser at po) [Peptide 69]”, which “[hGIPR/hGLP1R] EC50 Ratio” value is on record?
**A.** The value was 3.21.

**Q.** How did the “[hGIPR/hGLP1R] EC50 Ratio” value turn out when “Y-Aib-EGT-αMeF-TSDYSI-αMeL-LDKK((2-[2-(2-Amino-ethoxy)-ethoxy]-acetyl)2-(γGlu)-CO—(CH2)18—CO2H)AQ-Aib-Aad-FIEYLIEGGPSSGAPPPS-NH2 (YXEGTXTSDYSIXLDKKAQXXFIEYLIEGGPSSGAPPPS; Aib, Aad, αMeF, αMeL; acylated lysine C20 diacid; amide; (2)..(2) Xaa at position 2 is Aib; (6)..(6) Xaa at position 6 is alpha-methyl-Phe; (13)..(13) Xaa at position 13 is alpha-methyl-Leu; MOD_RES (17)..(17) Lys at position 17 is chemically modified by conjugation of the epsilon-amino group of the Lys side chain with (2-[2-(2-amino-ethoxy)-ethoxy]-acetyl)2-(gamma-Glu)-CO-(CH2)18- CO2H; (20)..(20) Xaa at position 20 is Aib; (21)..(21) Xaa at position 2) [Peptide 137]” was run?
**A.** Its value is 3.58.

**Q.** With “Y-Aib-EGT-αMeF-TSDYSI-αMeL-LDKK((2-[2-(2-Amino-ethoxy)-ethoxy]-acetyl)2-(γGlu)-CO—(CH2)18—CO2H)AQ-Aib-Aib-FIEYLIEGGPSSGAPPPS-NH2 (YXEGTXTSDYSIXLDKKAQXXFIEYLIEGGPSSGAPPPS; Aib, αMeF, αMeL; acylated lysine C20 diacid; amide; (2)..(2) Xaa at position 2 is Aib; (6)..(6) Xaa at position 6 is alpha-methyl-Phe; (13)..(13) Xaa at position 13 is alpha-methyl-Leu; MOD_RES (17)..(17) Lys at position 17 is chemically modified by conjugation of the epsilon-amino group of the Lys side chain with (2-[2-(2-amino-ethoxy)-ethoxy]-acetyl)2-(gamma-Glu)-CO-(CH2)18- CO2H; (20)..(20) Xaa at position 20 is Aib; (21)..(21) Xaa at position 2) [Peptide 143]” as the substance, how does the “[hGIPR/hGLP1R] EC50 Ratio” value read?
**A.** The value was 3.89.

**Q.** Which “[hGIPR/hGLP1R] EC50 Ratio” value does the source give for “Y-Aib-EGT-αMeF-TSDYSI-αMeL-LDKK((2-[2-(2-Amino-ethoxy)-ethoxy]-acetyl)2-(γGlu)-CO—(CH2)18—CO2H)AQ-Aib-DFIEYLIEGGPSSGAPPPS-NH2 (YXEGTXTSDYSIXLDKKAQXDFIEYLIEGGPSSGAPPPS; Aib, αMeF, αMeL; acylated lysine C20 diacid; amide; (2)..(2) Xaa at position 2 is Aib; (6)..(6) Xaa at position 6 is alpha-methyl-Phe; (13)..(13) Xaa at position 13 is alpha-methyl-Leu; MOD_RES (17)..(17) Lys at position 17 is chemically modified by conjugation of the epsilon-amino group of the Lys side chain with (2-[2-(2-amino-ethoxy)-ethoxy]-acetyl)2-(gamma-Glu)-CO-(CH2)18- CO2H; (20)..(20) Xaa at position 20 is Aib; MOD_RES (39)..(39) Ser at po) [Peptide 140]” here?
**A.** The value was 3.24.

**Q.** Which “[hGIPR/hGLP1R] EC50 Ratio” value does the source give for “Y-Aib-EGT-αMeF-TSDYSI-αMeL-LDKK((2-[2-(2-Amino-ethoxy)-ethoxy]-acetyl)2-(γGlu)-CO—(CH2)18—CO2H)AQ-Aib-EFI-(D-Glu)-YLIEGGPSSG-NH2 (YXEGTXTSDYSIXLDKKAQXEFIXYLIEGGPSSG; Aib, αMe, D-Glu, C20 diacid lipidation, C-amide; (2)..(2) Xaa at position 2 is Aib; (6)..(6) Xaa at position 6 is alpha-methyl-Phe; (13)..(13) Xaa at position 13 is alpha-methyl-Leu; MOD_RES (17)..(17) Lys at position 17 is chemically modified by conjugation of the epsilon-amino group of the Lys side chain with (2-[2-(2-amino-ethoxy)-ethoxy]-acetyl)2-(gamma-Glu)-CO-(CH2)18- CO2H; (20)..(20) Xaa at position 20 is Aib; (24)..(24) Xaa at position 2) [Peptide 228]” here?
**A.** Its value is 3.51.

**Q.** For “Y-Aib-EGT-αMeF-TSDYSI-αMeL-LDKK((2-[2-(2-Amino-ethoxy)-ethoxy]-acetyl)2-(γGlu)-CO—(CH2)18—CO2H)AQ-Aib-EFIEYLIEGGPSSG-NH2 (YXEGTXTSDYSIXLDKKAQXEFIEYLIEGGPSSG; Aib, αMe residues, C20 diacid lipidation, C-amide; (2)..(2) Xaa at position 2 is Aib; (6)..(6) Xaa at position 6 is alpha-methyl-Phe; (13)..(13) Xaa at position 13 is alpha-methyl-Leu; MOD_RES (17)..(17) Lys at position 17 is chemically modified by conjugation of the epsilon-amino group of the Lys side chain with (2-[2-(2-amino-ethoxy)-ethoxy]-acetyl)2-(gamma-Glu)-CO-(CH2)18- CO2H; (20)..(20) Xaa at position 20 is Aib; MOD_RES (34)..(34) Gly at po) [Peptide 123]”, which “[hGIPR/hGLP1R] EC50 Ratio” value is on record?
**A.** The value was 2.56.

**Q.** Which “[hGIPR/hGLP1R] EC50 Ratio” value does the source give for “Y-Aib-EGT-αMeF-TSDYSI-αMeL-LDKK((2-[2-(2-Amino-ethoxy)-ethoxy]-acetyl)2-(γGlu)-CO—(CH2)18—CO2H)AQ-Aib-TFIEYLIEGGPSSGAPPPS-NH2 (YXEGTXTSDYSIXLDKKAQXTFIEYLIEGGPSSGAPPPS; Aib, αMeF, αMeL; acylated lysine C20 diacid; amide; (2)..(2) Xaa at position 2 is Aib; (6)..(6) Xaa at position 6 is alpha-methyl-Phe; (13)..(13) Xaa at position 13 is alpha-methyl-Leu; MOD_RES (17)..(17) Lys at position 17 is chemically modified by conjugation of the epsilon-amino group of the Lys side chain with (2-[2-(2-amino-ethoxy)-ethoxy]-acetyl)2-(gamma-Glu)-CO-(CH2)18- CO2H; (20)..(20) Xaa at position 20 is Aib; MOD_RES (39)..(39) Ser at po) [Peptide 139]” here?
**A.** Its value is 3.19.
